In one experiment the target is T1, human chemokine CCL19 (human, UniProt Q99731 22-98).
T1 sequence (looked up): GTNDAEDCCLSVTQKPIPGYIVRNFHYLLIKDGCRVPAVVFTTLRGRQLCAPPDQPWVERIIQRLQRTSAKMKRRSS
Kind of experiment: western blot of human CCL19 and human CCL21 probed with the monoclonal antibody. In general terms: In western blotting, separated proteins are transferred to a membrane and probed.

Another experiment deals with T2, mouse CCL21 (mouse, UniProt P84444 24-133).
T2 construct: also called murine CCL21
T2 sequence (looked up): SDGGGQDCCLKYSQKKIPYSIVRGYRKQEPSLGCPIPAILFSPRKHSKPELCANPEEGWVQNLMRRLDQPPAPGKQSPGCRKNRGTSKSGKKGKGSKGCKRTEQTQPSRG
Nature of the experiment: slot blot of human and mouse CCL21 protein probed with the monoclonal antibody.

Another experiment has as its target T3, CCL21 pep 2.
T3 construct: One of the two peptides behind r1 of the first reading
T3 peptide: KYSQRKIPAKVVR
Kind of experiment: slot blot; each lane holds only CCL21, pep 1 or pep 2 in the amount printed, probed with the monoclonal antibody (the legend calls it a competition).

Another experiment deals with T4, CCL21 pep 1.
T4 construct: One of the two peptides behind r1 of the first reading
T4 peptide: SLLILVLAFGIPR
Described as above.

For experiment [1], the target named is T5, human CCL21 (chemokine (C-C motif) ligand 21) (human, UniProt O00585 24-134).
T5 construct: The same entry is used for native CCL21 stained in tissue; also called hCCL21; rhCCL21
T5 sequence (looked up): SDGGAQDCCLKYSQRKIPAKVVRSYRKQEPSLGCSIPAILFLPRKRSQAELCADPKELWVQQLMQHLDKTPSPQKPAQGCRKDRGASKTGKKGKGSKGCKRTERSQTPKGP
Kind of experiment: western blot of human CCL21 protein probed with hybridoma supernatant ('Supernatent BalbC (1:10)').

B1: anti-CCL21 murine monoclonal antibody Clone #8 (C8) (antibody, V domains shown)
VH: EVQLQQSGAEIVRSGASVRLSCTASGFNIKDFYLNWVKQRPEQGLDWIGWIDPENGDTEYAPKFQGKATMTADTSSNTIYLHLSSLTSEDTAVYYCNAFDYDYWGQGTTLTVSS
VL: DIQMNQSPSSLSASLGDTVTITCHASQNINVWLSWYQQKPGNIPKLLIYKASNLHTGVPSRFSGSGSGTGFTLTISSLHPEDIATYYCHQGHSFPLTFGAGTKLELK
notes: Mouse monoclonal from immunized BALB/C mice; also called anti-CCL21 C8
Regarding B1, the binding result is listed as “no binding (tested: 100 ng)” with human chemokine CCL19; “no binding (tested: 1.0 µg)” with mouse CCL21; “no binding (tested: 1.0 µg)” in the experiment with CCL21 pep 2; “binds” with CCL21 pep 1; “binds” in experiment [1].

(Values after patent US20240018228A1 (University of Texas, published 2024).)
